According to patent US20140073768A1:

target: FcγRIIIa on human PBMCs expressing heterozygous V158/F158 FcγRIIIa (human) (UniProt P08637); assay: cell-based or functional assay

Row | Substance | ADCC EC50, DoHH-2 targets, PBMCs [ng/mL] | ADCC log(EC50), DoHH-2 targets, PBMCs
1 | alemtuzumab S239D/I332E (antibody) | 3 | 0.49
2 | alemtuzumab V264I/I332E (antibody) | 4 | 0.6

target: extracellular region of human V158 FcγRIIIa, C-terminal 6xHis-tag and GST-tag (human) (UniProt P08637); assay: SPR, receptor immobilized, antibody flowed over

Row | Substance | Kd [nM]
3 | alemtuzumab, wild type (antibody) | 68

target: extracellular region of human F158 FcγRIIIa, C-terminal 6xHis-tag and GST-tag (human) (UniProt P08637); assay: SPR, receptor immobilized, antibody flowed over

Row | Substance | Kd [nM]
4 | alemtuzumab, wild type (antibody) | 730

target: extracellular region of human V158 FcγRIIIa, C-terminal 6xHis-tag and GST-tag (human) (UniProt P08637); assay: SPR

Row | Substance | Fold WT [fold]
5 | alemtuzumab E258H (antibody) | 5.5
6 | alemtuzumab E258Y (antibody) | 1.77
7 | alemtuzumab E272H (antibody) | 384
8 | alemtuzumab E272R (antibody) | 1.38
9 | alemtuzumab E283H (antibody) | 2.31
10 | alemtuzumab E283L (antibody) | 2.56
11 | alemtuzumab H268D (antibody) | 5.66
12 | alemtuzumab K246H (antibody) | 22.4
13 | alemtuzumab K246Y (antibody) | 7.07
14 | alemtuzumab R255Y (antibody) | 1.41
15 | alemtuzumab S267E (antibody) | 2.62
16 | alemtuzumab S304T (antibody) | 12.8
17 | alemtuzumab T260H (antibody) | 1.86
18 | alemtuzumab V284E (antibody) | 1.51
